According to US20040209326A1:

Experiments:
[1] = molecular target: fibrinogen binding protein encoded from pSE100 (581 aa part of protein FIG of Staphylococcus epidermidis strain HB) (Staphylococcus epidermidis strain HB) (UniProt O70022); assay: inhibition of pSE100 phage panning on fibrinogen-coated wells by the soluble ligand; phage eluted at pH 1.8
[2] = molecular target: Bovine serum albumin (fraction V, ria grade) (bovine) (UniProt P02769); assay: phage panning on coated protein in microtiter wells; last wash
Collagen type I [3] = assay: as above
Elastin [4] = assay: as above
Fibronectin [5] = assay: as above
Human fibrinogen (human) [6] = molecular target: Human fibrinogen (human) (UniProt P02671); assay: as above
[7] = molecular target: Human serum albumin (human) (UniProt P02768); assay: as above
IgA [8] = assay: as above
Lactoferrin [9] = assay: as above
Pepsin [10] = assay: as above
Transferrin [11] = assay: as above
Vitronectin [12] = assay: as above
human IgG [13] = assay: as above
α2macroglobulin [14] = assay: as above
[15] = molecular target: Bovine serum albumin (fraction V, ria grade) (bovine) (UniProt P02769); assay: phage panning on coated protein in microtiter wells; bound phage eluted at pH 1.8
Collagen type I [16] = assay: as above
Elastin [17] = assay: as above
Fibronectin [18] = assay: as above
Human fibrinogen (human) [19] = molecular target: Human fibrinogen (human) (UniProt P02671); assay: as above
[20] = molecular target: Human serum albumin (human) (UniProt P02768); assay: as above
IgA [21] = assay: as above
Lactoferrin [22] = assay: as above
Pepsin [23] = assay: as above
Transferrin [24] = assay: as above
Vitronectin [25] = assay: as above
human IgG [26] = assay: as above
α2macroglobulin [27] = assay: as above

UniProt O70022, sequence (O70022 75-656): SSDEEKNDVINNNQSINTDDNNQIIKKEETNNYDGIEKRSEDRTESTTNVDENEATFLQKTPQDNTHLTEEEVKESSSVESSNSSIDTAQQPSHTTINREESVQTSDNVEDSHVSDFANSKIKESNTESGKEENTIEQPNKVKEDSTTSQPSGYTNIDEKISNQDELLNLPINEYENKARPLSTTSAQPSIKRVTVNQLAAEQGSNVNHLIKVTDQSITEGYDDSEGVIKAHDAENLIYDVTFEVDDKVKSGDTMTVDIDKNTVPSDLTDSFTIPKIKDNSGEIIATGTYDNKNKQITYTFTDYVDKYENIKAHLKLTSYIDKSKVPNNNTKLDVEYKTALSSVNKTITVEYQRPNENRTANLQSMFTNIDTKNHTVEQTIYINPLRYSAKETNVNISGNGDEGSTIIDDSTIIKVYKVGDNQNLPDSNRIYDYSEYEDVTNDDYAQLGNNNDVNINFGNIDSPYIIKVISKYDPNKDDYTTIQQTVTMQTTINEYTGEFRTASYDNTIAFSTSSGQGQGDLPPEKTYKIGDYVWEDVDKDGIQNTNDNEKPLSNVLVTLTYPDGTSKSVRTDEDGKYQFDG
UniProt P02671, sequence (P02671 other isoform, or with tags, fused parts or gaps limits assumed, chain 1 of 3): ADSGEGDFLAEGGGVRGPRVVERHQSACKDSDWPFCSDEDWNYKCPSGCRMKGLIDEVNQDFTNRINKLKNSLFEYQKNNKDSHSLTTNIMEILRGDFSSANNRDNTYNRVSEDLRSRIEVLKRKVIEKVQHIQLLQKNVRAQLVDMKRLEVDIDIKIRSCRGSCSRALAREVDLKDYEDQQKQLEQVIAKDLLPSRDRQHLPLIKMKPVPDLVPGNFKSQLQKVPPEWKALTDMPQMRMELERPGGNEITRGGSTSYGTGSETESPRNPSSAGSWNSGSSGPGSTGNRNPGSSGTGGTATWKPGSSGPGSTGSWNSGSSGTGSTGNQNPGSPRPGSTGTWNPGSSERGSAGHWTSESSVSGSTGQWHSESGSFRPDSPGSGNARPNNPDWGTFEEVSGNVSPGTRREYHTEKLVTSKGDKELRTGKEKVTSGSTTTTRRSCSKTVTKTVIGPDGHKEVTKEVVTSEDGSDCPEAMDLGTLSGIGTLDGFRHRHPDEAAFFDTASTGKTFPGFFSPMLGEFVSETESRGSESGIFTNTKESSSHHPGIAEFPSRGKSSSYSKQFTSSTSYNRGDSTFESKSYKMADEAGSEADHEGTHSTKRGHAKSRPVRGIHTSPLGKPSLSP
UniProt P02671, sequence (P02675 31-491 limits assumed, chain 2 of 3, further chain): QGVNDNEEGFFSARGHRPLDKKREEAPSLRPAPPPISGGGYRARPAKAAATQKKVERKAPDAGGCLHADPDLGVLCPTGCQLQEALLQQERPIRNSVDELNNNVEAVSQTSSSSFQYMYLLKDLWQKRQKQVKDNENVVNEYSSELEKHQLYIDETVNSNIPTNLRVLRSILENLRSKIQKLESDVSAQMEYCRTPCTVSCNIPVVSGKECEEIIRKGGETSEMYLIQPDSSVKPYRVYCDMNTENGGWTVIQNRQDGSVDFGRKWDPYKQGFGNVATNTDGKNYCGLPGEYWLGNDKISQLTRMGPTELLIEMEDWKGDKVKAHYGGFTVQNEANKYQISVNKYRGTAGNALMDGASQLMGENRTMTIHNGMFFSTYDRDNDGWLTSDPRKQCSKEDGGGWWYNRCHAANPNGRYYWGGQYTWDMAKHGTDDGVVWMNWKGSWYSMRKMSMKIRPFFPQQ
UniProt P02671, sequence (P02679 other isoform, or with tags, fused parts or gaps limits assumed, chain 3 of 3, further chain): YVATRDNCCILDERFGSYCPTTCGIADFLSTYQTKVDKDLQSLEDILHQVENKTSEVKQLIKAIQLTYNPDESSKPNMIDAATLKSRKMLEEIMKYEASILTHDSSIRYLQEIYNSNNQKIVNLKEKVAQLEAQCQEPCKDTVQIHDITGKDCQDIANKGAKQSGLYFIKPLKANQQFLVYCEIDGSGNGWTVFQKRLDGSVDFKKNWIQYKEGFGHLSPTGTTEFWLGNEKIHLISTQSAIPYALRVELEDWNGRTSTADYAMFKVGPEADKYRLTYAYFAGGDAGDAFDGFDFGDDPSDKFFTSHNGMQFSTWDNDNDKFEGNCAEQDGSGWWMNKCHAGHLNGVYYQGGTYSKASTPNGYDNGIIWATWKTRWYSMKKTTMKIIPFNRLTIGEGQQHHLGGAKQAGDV
UniProt P02769, sequence (P02769 25-607 limits assumed): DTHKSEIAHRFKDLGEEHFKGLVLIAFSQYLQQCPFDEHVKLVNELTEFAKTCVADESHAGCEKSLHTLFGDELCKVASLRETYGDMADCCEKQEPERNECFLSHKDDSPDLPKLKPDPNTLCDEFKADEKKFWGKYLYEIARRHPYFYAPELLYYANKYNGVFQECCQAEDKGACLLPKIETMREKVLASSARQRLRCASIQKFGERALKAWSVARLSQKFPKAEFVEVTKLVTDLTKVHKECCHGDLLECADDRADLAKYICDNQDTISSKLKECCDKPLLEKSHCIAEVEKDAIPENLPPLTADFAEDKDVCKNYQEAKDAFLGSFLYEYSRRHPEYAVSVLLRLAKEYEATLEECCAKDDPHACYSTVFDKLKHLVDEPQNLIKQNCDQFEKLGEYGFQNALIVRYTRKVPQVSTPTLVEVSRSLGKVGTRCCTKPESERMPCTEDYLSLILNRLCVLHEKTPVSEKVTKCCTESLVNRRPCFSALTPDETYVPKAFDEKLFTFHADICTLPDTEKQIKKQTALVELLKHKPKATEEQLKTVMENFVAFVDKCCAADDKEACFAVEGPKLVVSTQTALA

Substance: human IgG (antibody)
- eluted phage titre at 0 µg/ml soluble ligand [1]: 76000 cfu/ml
- eluted phage titre at 0.1 µg/ml soluble ligand [1]: 62000 cfu/ml
- eluted phage titre at 1 µg/ml soluble ligand [1]: 90000 cfu/ml
- eluted phage titre at 10 µg/ml soluble ligand [1]: 78000 cfu/ml
- eluted phage titre at 100 µg/ml soluble ligand [1]: 73000 cfu/ml
- eluted phage titre at 1000 µg/ml soluble ligand [1]: 76000 cfu/ml

Substance: fibrinogen binding protein encoded from pSE100 (581 aa part of protein FIG of Staphylococcus epidermidis strain HB) (from UniProt O70022 75-656)
- phage titre in the last wash [2]: < 100 cfu/ml
- phage titre in the last wash (Collagen type I [3]): 600 cfu/ml
- phage titre in the last wash (Elastin [4]): 800 cfu/ml
- phage titre in the last wash (Fibronectin [5]): 600 cfu/ml
- phage titre in the last wash (Human fibrinogen (human) [6]): 11000 cfu/ml
- phage titre in the last wash [7]: 800 cfu/ml
- phage titre in the last wash (IgA [8]): 600 cfu/ml
- phage titre in the last wash (Lactoferrin [9]): 600 cfu/ml
- phage titre in the last wash (Pepsin [10]): 180 cfu/ml
- phage titre in the last wash (Transferrin [11]): 200 cfu/ml
- phage titre in the last wash (Vitronectin [12]): < 100 cfu/ml
- phage titre in the last wash (human IgG [13]): 400 cfu/ml
- phage titre in the last wash (α2macroglobulin [14]): 200 cfu/ml
- phage titre in Eluate pH 1.8 [15]: 800 cfu/ml
- phage titre in Eluate pH 1.8 (Collagen type I [16]): 1200 cfu/ml
- phage titre in Eluate pH 1.8 (Elastin [17]): 5200 cfu/ml
- phage titre in Eluate pH 1.8 (Fibronectin [18]): 24000 cfu/ml
- phage titre in Eluate pH 1.8 (Human fibrinogen (human) [19]): 1.4e+07 cfu/ml
- phage titre in Eluate pH 1.8 [20]: 2200 cfu/ml
- phage titre in Eluate pH 1.8 (IgA [21]): 68000 cfu/ml
- phage titre in Eluate pH 1.8 (Lactoferrin [22]): 8200 cfu/ml
- phage titre in Eluate pH 1.8 (Pepsin [23]): 37000 cfu/ml
- phage titre in Eluate pH 1.8 (Transferrin [24]): 2400 cfu/ml
- phage titre in Eluate pH 1.8 (Vitronectin [25]): 2200 cfu/ml
- phage titre in Eluate pH 1.8 (human IgG [26]): 4400 cfu/ml
- phage titre in Eluate pH 1.8 (α2macroglobulin [27]): 2000 cfu/ml

Substance: Human fibrinogen (from UniProt P02671 20-644; P02675 31-491; P02679 27-437)
- eluted phage titre at 0 µg/ml soluble ligand [1]: 76000 cfu/ml
- eluted phage titre at 0.1 µg/ml soluble ligand [1]: 44000 cfu/ml
- eluted phage titre at 1 µg/ml soluble ligand [1]: 36000 cfu/ml
- eluted phage titre at 10 µg/ml soluble ligand [1]: 15000 cfu/ml
- eluted phage titre at 100 µg/ml soluble ligand [1]: 3800 cfu/ml
- eluted phage titre at 1000 µg/ml soluble ligand [1]: 300 cfu/ml

Substance: Bovine serum albumin (fraction V, ria grade) (from UniProt P02769 25-607)
- eluted phage titre at 0 µg/ml soluble ligand [1]: 76000 cfu/ml
- eluted phage titre at 0.1 µg/ml soluble ligand [1]: 70000 cfu/ml
- eluted phage titre at 1 µg/ml soluble ligand [1]: 93000 cfu/ml
- eluted phage titre at 10 µg/ml soluble ligand [1]: 63000 cfu/ml
- eluted phage titre at 100 µg/ml soluble ligand [1]: 64000 cfu/ml
- eluted phage titre at 1000 µg/ml soluble ligand [1]: 69000 cfu/ml
